Reference: the supplement of paper PMC7125110
± gives the standard error. This sample holds only a part of the variants without activity.

B1: glmS ribozyme (parent)
chain: AUAAAAGCGCCAGAACUACAGAAAUGUAGUUGACGAGGAGGAGGUUUAUCGAAUUUUCGGCGGAUGCCUCCAAA

Assays:
Conditions in all cases: with glucosamine-6-phosphate
[1] = variants of: B1; experiment: self-cleavage kobs at 640 uM GlcN6P; higher = faster cleavage; RNA array
Outline: (§1)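 Tiles of sequenced MiSeq chips were imaged over ~14 h at 37 °C. On them, barcoded ribozyme variants had been transcribed in situ by E. coli RNA polymerase and were tracked via a hybridised Cy3 probe while glucosamine-6-phosphate (40 μM to 10 mM) in HEPES/KCl/Mg(OAc)2 buffer flowed in. Per-tile medians, normalised to baseline and to non-cleaving reference variants, were fit to one- or two-exponential decays for kobs, and weighted Michaelis–Menten fits gave kcat and KM.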

[2] = variants of: B1; experiment: self-cleavage kobs at 2500 uM GlcN6P; higher = faster cleavage; RNA array
Outline: as §1

[3] = variants of: B1; experiment: self-cleavage kobs at 10000 uM GlcN6P; higher = faster cleavage; RNA array
Outline: as §1

Variant	self-cleavage kobs at 640 uM GlcN6P [1]	self-cleavage kobs at 2500 uM GlcN6P [2]	self-cleavage kobs at 10000 uM GlcN6P [3]
A12G U31G U55A C67U	5.14e-05 ± 1.3e-05 s⁻¹	0.00011 ± 1.9e-05 s⁻¹	0.000176 ± 3.2e-05 s⁻¹
C11U C61G C67A	0.000183 ± 5.6e-05 s⁻¹	0.000446 ± 0.00017 s⁻¹	
G7U G40C U49A	< 1e-05 s⁻¹		
A14U A36C U47C	< 1e-05 s⁻¹		
U31A A33G U49C C58G	< 1e-05 s⁻¹		
G35C G40A G43U	< 1e-05 s⁻¹	< 1e-05 s⁻¹	
G7A C10U C67G	8.24e-05 ± 3.5e-05 s⁻¹		
A53U C58A C68U	9.67e-05 ± 3.2e-05 s⁻¹	6.03e-05 ± 2e-05 s⁻¹	
U54A U57A	4.89e-05 ± 1.3e-05 s⁻¹	0.000102 ± 2.8e-05 s⁻¹	
U49G G62C	< 1e-05 s⁻¹		
A6U A36C A39U C71G	< 1e-05 s⁻¹	< 1e-05 s⁻¹	
A15G C16U C67U	0.000521 ± 0.00014 s⁻¹		
C10U G63C U65G C70A C71A	0.000118 ± 4.2e-05 s⁻¹		< 1e-05 s⁻¹
G40C U45C A48G	< 1e-05 s⁻¹	< 1e-05 s⁻¹	
C10A A12U C67G	8.71e-05 ± 3.5e-05 s⁻¹		
G9C A39G G40U	< 1e-05 s⁻¹	< 1e-05 s⁻¹	< 1e-05 s⁻¹
U54G U55C U56G G59C U69G	0.000119 ± 4.3e-05 s⁻¹	6.83e-05 ± 2.7e-05 s⁻¹	
C8U G13C A14C	< 1e-05 s⁻¹	< 1e-05 s⁻¹	
A15C G37C C70U	< 1e-05 s⁻¹		
A33G C50G C68G	0.00023 ± 6.4e-05 s⁻¹	0.000213 ± 4e-05 s⁻¹	
G41U A52C C71A	< 1e-05 s⁻¹	< 1e-05 s⁻¹	
A12U G32U G41A U56A A64U U65A	< 1e-05 s⁻¹	< 1e-05 s⁻¹	

Variant	self-cleavage kobs at 640 uM GlcN6P [1]	self-cleavage kobs at 2500 uM GlcN6P [2]	self-cleavage kobs at 10000 uM GlcN6P [3]
C16G A36C G51A G59C C61G	< 1e-05 s⁻¹	< 1e-05 s⁻¹	
G35A G37U C58A C70A	0.000632 ± 0.00016 s⁻¹		
A14G C16A G62C	< 1e-05 s⁻¹		
A14G U47A G66C	0.000364 ± 0.00011 s⁻¹	0.00101 ± 0.00023 s⁻¹	0.00125 ± 0.00022 s⁻¹
U30C G63U C68G	9.11e-05 ± 1.9e-05 s⁻¹	5.6e-05 ± 1.4e-05 s⁻¹	
C11G A12U G41U A53G C67G	< 1e-05 s⁻¹		
G41U U45A G51C C58G	< 1e-05 s⁻¹	< 1e-05 s⁻¹	
U46G A53G C70A	0.000507 ± 0.0001 s⁻¹		
A33U G44C G51A U56A	< 1e-05 s⁻¹		
G43A U49G C50G U57C	< 1e-05 s⁻¹		
A36G G41C	< 1e-05 s⁻¹		< 1e-05 s⁻¹
G9U U54C	< 1e-05 s⁻¹		
G29C A48G G60A	< 1e-05 s⁻¹		
G41A U55C	1.88e-05 ± 8.5e-06 s⁻¹	0.000105 ± 1.9e-05 s⁻¹	
A39U G44U U47C G51U	< 1e-05 s⁻¹		
A33C C61A A64U C68U	< 1e-05 s⁻¹		
U31A G60U C71A	< 1e-05 s⁻¹	< 1e-05 s⁻¹	
A6C G13C G51U	< 1e-05 s⁻¹		
C8G G13C G40A U56A G59U	< 1e-05 s⁻¹		
A15U U30A C68G	9.94e-05 ± 2.9e-05 s⁻¹		
G9U A15U A42G G63C U69G	< 1e-05 s⁻¹	< 1e-05 s⁻¹	
A15U G66C C68A	8.24e-05 ± 3.9e-05 s⁻¹	6.09e-05 ± 2.8e-05 s⁻¹	

Variant	self-cleavage kobs at 640 uM GlcN6P [1]	self-cleavage kobs at 2500 uM GlcN6P [2]	self-cleavage kobs at 10000 uM GlcN6P [3]
C50A G51U G59A U69A	0.000511 ± 0.00021 s⁻¹		
G7C A14U U56A	< 1e-05 s⁻¹	< 1e-05 s⁻¹	
A6G A15C G32U	< 1e-05 s⁻¹		
G37U C50A G51C	< 1e-05 s⁻¹		
G38C G41U G44C	< 1e-05 s⁻¹	< 1e-05 s⁻¹	
A14U G40C G44C U45C C70U	< 1e-05 s⁻¹	< 1e-05 s⁻¹	
A12G C16U U49A	< 1e-05 s⁻¹		
G13C G37C U45G	< 1e-05 s⁻¹	< 1e-05 s⁻¹	
C11A U31G G35C	< 1e-05 s⁻¹	< 1e-05 s⁻¹	
C8G G43A U46G	< 1e-05 s⁻¹		< 1e-05 s⁻¹
A14G U31G C50G	0.000132 ± 3.6e-05 s⁻¹		
C8G A39U U46G U69G	< 1e-05 s⁻¹	< 1e-05 s⁻¹	
G7U G66A C67U	< 1e-05 s⁻¹	< 1e-05 s⁻¹	
A36C G41A U45G A52U	< 1e-05 s⁻¹		
U46A U56C C68A	< 1e-05 s⁻¹	< 1e-05 s⁻¹	
G29C U55G C71A	0.000503 ± 0.00015 s⁻¹	5.43e-05 ± 1.3e-05 s⁻¹	
A48U G62U C70U	< 1e-05 s⁻¹		
A39G C61G A64C	< 1e-05 s⁻¹	< 1e-05 s⁻¹	
G35U A39U U45G U46C	< 1e-05 s⁻¹	< 1e-05 s⁻¹	
A12C G66U C70G	7.67e-05 ± 2.5e-05 s⁻¹		
A14G G29A A39G A42G G43U G62C	< 1e-05 s⁻¹	< 1e-05 s⁻¹	
C11A U30G U65C	< 1e-05 s⁻¹	< 1e-05 s⁻¹	

Variant	self-cleavage kobs at 640 uM GlcN6P [1]	self-cleavage kobs at 2500 uM GlcN6P [2]	self-cleavage kobs at 10000 uM GlcN6P [3]
G7C C61A G63C	< 1e-05 s⁻¹		
A6C C8G A48G G60U C68U	< 1e-05 s⁻¹	< 1e-05 s⁻¹	
A36C G51A C70G	9.36e-05 ± 3.3e-05 s⁻¹		
G29A G44U U54A U57A C61U C68A	< 1e-05 s⁻¹	< 1e-05 s⁻¹	
U31G G35C C68G	< 1e-05 s⁻¹	< 1e-05 s⁻¹	
A6U A12U G13U U47A C70U	< 1e-05 s⁻¹		
C8G A36U C70U	< 1e-05 s⁻¹		
G7U A36C A42C G66C	< 1e-05 s⁻¹		
G35A G41U U46A	< 1e-05 s⁻¹	< 1e-05 s⁻¹	
C58U C67U U69A	6.03e-05 ± 2.7e-05 s⁻¹	0.000214 ± 9e-05 s⁻¹	
A6G G9C G60C G63A C68U	< 1e-05 s⁻¹		
A39G A42G C50A	< 1e-05 s⁻¹	< 1e-05 s⁻¹	
G37C G40U U46G G63U	< 1e-05 s⁻¹		< 1e-05 s⁻¹
C10G U47C U49C U55G	< 1e-05 s⁻¹		
G13U U31A U45G A48C	< 1e-05 s⁻¹	< 1e-05 s⁻¹	
A12G A36G G40A U54G	< 1e-05 s⁻¹		
A6U G43U C70G	< 1e-05 s⁻¹		
G7U C8G G38C	< 1e-05 s⁻¹		
A14G G40U C61G	< 1e-05 s⁻¹	< 1e-05 s⁻¹	
G43U C70G C71A	< 1e-05 s⁻¹	< 1e-05 s⁻¹	
A14U A15G G35U	< 1e-05 s⁻¹	< 1e-05 s⁻¹	
G37C C50U A53G U56C	< 1e-05 s⁻¹		

Variant	self-cleavage kobs at 640 uM GlcN6P [1]	self-cleavage kobs at 2500 uM GlcN6P [2]	self-cleavage kobs at 10000 uM GlcN6P [3]
G13C U46G A53U U54A	< 1e-05 s⁻¹		
G29A U69A	7.98e-05 ± 2.2e-05 s⁻¹	3.9e-05 ± 9.8e-06 s⁻¹	
C11G A14G G41A G43C	< 1e-05 s⁻¹	< 1e-05 s⁻¹	
A6G A48G C61G	< 1e-05 s⁻¹		
G9U A36G A39U	< 1e-05 s⁻¹	< 1e-05 s⁻¹	
G29C G40C C58G	< 1e-05 s⁻¹		
U45A G51C G60A C71U	< 1e-05 s⁻¹	< 1e-05 s⁻¹	
A15G A39C A53U	0.000793 ± 0.00012 s⁻¹	0.00236 ± 0.00069 s⁻¹	
U56C C61U C71G	< 1e-05 s⁻¹		
U31A U65C	6.63e-05 ± 2.8e-05 s⁻¹	0.000132 ± 3.7e-05 s⁻¹	0.000395 ± 0.0001 s⁻¹
A6C A42U C50U U57A G62C	< 1e-05 s⁻¹		
G7A G40U U45G C58G	< 1e-05 s⁻¹	< 1e-05 s⁻¹	
G7U U30A G63A	< 1e-05 s⁻¹		
C11A U30G U54G	4.96e-05 ± 1.4e-05 s⁻¹	0.000114 ± 2.1e-05 s⁻¹	
C10G A15C A36U	< 1e-05 s⁻¹		
U46A A52C C61U	< 1e-05 s⁻¹	< 1e-05 s⁻¹	
G32U U56A C68G	0.000222 ± 9e-05 s⁻¹		
U45G U46C C71U	0.000925 ± 0.00024 s⁻¹	0.00445 ± 0.001 s⁻¹	
C10U A15U G35A C61G	< 1e-05 s⁻¹	< 1e-05 s⁻¹	
C11A A42C U46C C71U	< 1e-05 s⁻¹		
U31A A52G U69G	7.54e-05 ± 3.6e-05 s⁻¹	7.91e-05 ± 2.3e-05 s⁻¹	
C11U A33C G41A	< 1e-05 s⁻¹		

Variant	self-cleavage kobs at 640 uM GlcN6P [1]	self-cleavage kobs at 2500 uM GlcN6P [2]	self-cleavage kobs at 10000 uM GlcN6P [3]
U47C G59U	< 1e-05 s⁻¹		
A6C A42U C70G	< 1e-05 s⁻¹	< 1e-05 s⁻¹	
C16U A36G A39C	< 1e-05 s⁻¹		
G38U G41A U46G U49G	< 1e-05 s⁻¹		< 1e-05 s⁻¹
G35A A53G G60C	< 1e-05 s⁻¹	< 1e-05 s⁻¹	
U56G U57G G66U	< 1e-05 s⁻¹	< 1e-05 s⁻¹	
A14U G40A U56G U57C	< 1e-05 s⁻¹	< 1e-05 s⁻¹	
A6U C67U C70G	0.000211 ± 6.3e-05 s⁻¹		
C34A G41A	< 1e-05 s⁻¹	< 1e-05 s⁻¹	
A6G A36C G38C	< 1e-05 s⁻¹		< 1e-05 s⁻¹
A39U A53C C71A	8.85e-05 ± 1.7e-05 s⁻¹	0.000186 ± 5.3e-05 s⁻¹	
C8U G9A A15U A39G	< 1e-05 s⁻¹	< 1e-05 s⁻¹	
A42G C58A A64U	< 1e-05 s⁻¹	< 1e-05 s⁻¹	
C16A G66U C68G	6.61e-05 ± 2.5e-05 s⁻¹	6.82e-05 ± 2.8e-05 s⁻¹	
C8A C34U A36U G59U G62A	< 1e-05 s⁻¹		
C8G G9C A39C	< 1e-05 s⁻¹	< 1e-05 s⁻¹	
A15C U54C G66U C70U	7.59e-05 ± 1.8e-05 s⁻¹	0.000351 ± 9.2e-05 s⁻¹	
G35U G44U C68A	< 1e-05 s⁻¹	< 1e-05 s⁻¹	
C16G G37A U45A	8.21e-05 ± 2.1e-05 s⁻¹		
C16U U30A G44C G63C	< 1e-05 s⁻¹		< 1e-05 s⁻¹
C8A G37U A52G C70G	0.000115 ± 5.1e-05 s⁻¹		
